Data from PMC8995355 (Molecular cell, 2022).
Square brackets hold non-standard residues; d marks the D form. Ends that are not written are not given here. pS = N[C@@H](COP(=O)(O)O)C(=O)O

Experiments:
RIF1 = RIF1 (UniProt Q5UIP0); test: biotin-peptide streptavidin pull-down, RIF1 blot
[1] = target: Cy5-53BP1(166-182) pS176/pS178; pS176/pS178 (S) (human) (UniProt Q12888); test: fluorescence polarisation
[2] = target: T1, RIF1(1-980), recombinant N-terminal fragment with the HEAT repeat-rich NTD (human, UniProt Q5UIP0 1-980); test: fluorescence polarisation
T1 sequence (looked up): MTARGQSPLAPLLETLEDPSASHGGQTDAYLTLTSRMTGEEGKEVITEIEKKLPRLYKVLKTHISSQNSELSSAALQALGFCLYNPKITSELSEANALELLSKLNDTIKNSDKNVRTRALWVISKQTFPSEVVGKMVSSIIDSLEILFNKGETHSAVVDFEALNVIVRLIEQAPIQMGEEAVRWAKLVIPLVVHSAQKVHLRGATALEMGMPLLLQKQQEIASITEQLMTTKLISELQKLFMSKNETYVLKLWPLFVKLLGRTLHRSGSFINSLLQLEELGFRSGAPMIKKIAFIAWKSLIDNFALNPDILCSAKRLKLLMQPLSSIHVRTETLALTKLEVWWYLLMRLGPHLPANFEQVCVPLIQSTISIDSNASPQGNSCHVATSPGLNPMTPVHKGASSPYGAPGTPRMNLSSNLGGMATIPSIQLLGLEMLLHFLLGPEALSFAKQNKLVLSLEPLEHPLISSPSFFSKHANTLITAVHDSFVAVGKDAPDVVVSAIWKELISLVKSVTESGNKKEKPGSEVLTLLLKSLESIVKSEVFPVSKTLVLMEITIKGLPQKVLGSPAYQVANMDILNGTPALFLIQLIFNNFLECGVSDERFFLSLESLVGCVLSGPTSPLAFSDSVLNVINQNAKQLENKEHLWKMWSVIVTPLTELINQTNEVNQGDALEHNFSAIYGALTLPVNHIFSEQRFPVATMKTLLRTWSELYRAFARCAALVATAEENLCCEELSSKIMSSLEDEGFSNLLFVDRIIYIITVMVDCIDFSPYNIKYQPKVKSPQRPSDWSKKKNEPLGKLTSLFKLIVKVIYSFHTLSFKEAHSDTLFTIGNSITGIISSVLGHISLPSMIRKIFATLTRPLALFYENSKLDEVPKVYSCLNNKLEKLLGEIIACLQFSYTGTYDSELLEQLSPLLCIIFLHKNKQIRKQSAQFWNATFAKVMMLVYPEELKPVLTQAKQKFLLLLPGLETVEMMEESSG

For “53BP1 686-702 (from UniProt Q12888) pT696/pS698 peptide”, the “binding against the reference” value (RIF1; reference: unphosphorylated peptide (T696/S698), sites T696,S698) was “stronger”.

With “53BP1 511-527 (from UniProt Q12888) pS518/pS520 peptide” the “binding against the reference” value (RIF1; reference: unphosphorylated peptide (S518/S520), sites S518,S520) was “stronger”.

With “RIF1(1-980), recombinant N-terminal fragment with the HEAT repeat-rich NTD (from UniProt Q5UIP0 1-980) (domain or fragment)” the Kd [1] was 2000 nM.

Cy5-SQLGFGVLELEQ[pS]QDVE (peptide, UniProt Q12888 166-182, looked up) [Cy5-53BP1(166-182) S176E/pS178; S176E/pS178 (S)]: binds [2].

Cy5-SQLGFGVLAL[pS]Q[pS]QDVE (peptide, UniProt Q12888 166-182, looked up) [Cy5-53BP1(166-182) pS176/pS178 E174A; pS176/pS178 (S) E174A]: binds [2].
